Experimental data published in the DeepSol protein solubility set.

Test: soluble on expression in E. coli; label from the status in PepcDB or PDB records

Row | Sequence | soluble on expression in E. coli
1 | MGSDKIHHHHHHMRMERVVERVAVTGAEAVANAMRQIEPDVVAAYPITPQTPIVEYFARFVADGVVRTEMIPVESEHSAMSAVVGAAAAGARAMTATSANGLALMHEIVYIAASYRLPIVMPVVNRALSGPINIHCDHSDAMAERDSGWIQLFAETNQEAYDFTILAVRLAEHEDVRLPVMVNLDGFILSHGVEPVEFYPDELVKKFVGELKPMYPLLDTEHPVTWGPLDLYDYYFEHKRQQIEAMENVKKVFPEIAKEFEETFGRKYWFVEPYRMEDAEHVMVALGSTNSTIKYVVDELREEGYKVGSLKIWMFRPFPKEQLQELLNGRKSVVVLDRAVSFGAEAPLYEAVKSALYEVAARPMLGSYVYGLGGRDIKPEHIRKAFEDAINGNLIADEQRYLGLRE | not soluble
2 | MDNPSKEIDLLLQSSYDMTILTKQGEYNVDSMLSRAHHVASRISSMYKYEKLLQDMQDLTVNGNRRKLILNDLQRENKQIMALQDENRQLRETTQEYLATMRNILDSHAEIEGSIEMGQMNSDIDDADIDRIIFEMANTDQEARLKKKALEMELMMDDLEKMRKEEYQELQLAVQRNKNYKELFKLACFSNQSANSILNSAMKIISEGDGFDDDEAQENEDLNETIIHKKQ | not soluble
3 | FLLPPSTACCTQLYRKPLSDKLLRKVIQVELQEADGDCHLQAFVLHLAQRSICIHPQNPSLSQWFEHQERKLHGTLPKLNFGMLRKMG | soluble
4 | SNKGGGSGGGSGGGSGPTAAAAAAALQKQKALLQRVETDITSVVDNFTQIVNVSRVSDPPVKNSQETYMMEMRASRMATQVLLKDFLMSLWSVVNLLPHQWWQVQAADSLLKLVSELKQTAIFSGFASLNDHVEQRIEEFDQEAEKTNRLLARIADDASANLKELESHYYSSAQRLTLDI | soluble
5 | MSLKRADLSIVPLTFKHPIVTAHAVLSVRRTLILRLETVDGVVGYGEGAAFETPWYTEETTQSMIDTSKLILNLLKGMTVTTDVFPNLVSSIIGQRMAKAMWESALWEIEATRANKSLKSFISAGDSVSCGRTIGIGLLNQTMKSIETALADGFERIKLKASPNELLPALREIRAVFPDAPLMIDLNGSASDQPMEWFEQLDTYRLLMIEQPYPSRQFTKSAALQAKLTTPICLDESITSYDDVETMAQLGAGKIVNIKPARVGGLSEAFHIRKHGTPYWVGGMYESGIGRYHTLLFASLSGASFPADMSGTSAYFEQDLLDIPLEVENGKLTLPDSVQPDWNVIERLREEVITLQTEGHHHHHH | soluble
6 | MLVEEAPVDADLGAAVTRLRALALEALCAGSLSAEQVLDHTRPAALALALAVCTPAEYARPWFRRATGDVRVLLARRLAEELGEDHVRWAAAIDLSGSFAGSVGELLHSDEAPGSVHRFLHPHRSSHATQNLLLALAPRDVAARYLAGLVETRRPNVVAYKMDWMLRSGPLSRPLVARGVGGSVGGQRELLGNDLCPDFVLEQVHGGYARHVMYREIIPPKVLKRAFRAYAASEPAHEVRAWAVSLLGERTDRLMDLAWSLTDAPTLLHRLVAAVLDRADPATLTCLYGALAEAAGPEPVWALDLERAGSLDAVQPAVRASMAAGSAEPLVEAAKRIPRRHWLDVLDEEAFGGQMLRDEAELDRTGHFPLEALVAARLDGRPERWAEVARQVAGGRMPVEAVVEGVVAAAIEEIGESAAKTAPETPTEAAPETTAEAAPQTPAEAAPQTPANAAPQTPTKPAPQPPAASPIAAPPAHAAPSASTT | not soluble
7 | MNMDVNAVKNSTRGKHWFNLLTQGFNLIASGIDSLLIAEGQLGENKISVFCVVPDSHNHFPRARQGEVGLLEGWSLAQAIDQIIESDQNLTHKRGILCIVDVPSQAYGRREELLGIHQALAAAADSYVRARLAGHPVVSLLVGKSMSGAFLAHGYQANRILALKDQGVMVHAMGKESAARVTLRTVDELENLAANIPPMAYDIESYNSLGLLSGLLNVSHADHPTTSDIDYIQQTLSQTFQEIRNQGTSDLKHRLSAKNREASVHVRELLREQWS | not soluble
8 | MGHHHHHHSHMGHLDKEGLCTQGSSFSWLLRVLNDGISLGLTPCLWDMYLLEGEQMLMLITSIAFKVQRSLYEETNKETWGPATPRALKGTGRARPICESLHSSLQALTASESSRGPSLLQTPPRVPGQQALSRGDKGISVSLSLPSLPSRRGRCGRIIG | not soluble
9 | MAHHHHHHMMAIRNMLRKIIIKHGKVANAVWVPKRFINMNPTGNEEKVTQERNKRDYILSLDEALYLSKEMGIKTTTEIQKIIMRSPPFSPDMSPFLIDNFLSSANKDRHSDEIDQIDLKLKELQERDSNPEESEQGEDEGAVENSKINISHDREENIINKILIDKFNKKRGKTFIHNDMEWLEESEGIGTNKRSCAYVYIKRGSGIVKVNDEEDLYIRWPYFYNRMDVLEPFYVTNTSCVFDVFIKLKGGGISGQSKAARLAIGRALLNACPLIYDDLQQHHILYEDMRQKFPKMPGRKKSRAMKQWSKR | not soluble
10 | GAMGSIQENLIFPMDNPKGIDGFTNLKEKDIATNENKLLRTITADKMIPAFLITPISSQIAGKVIAQVESDIFAHMGKAVLIPKGSKVIGYYSNNNKMGEYRLDIVWSRIITPHGINIMLTNAKGADIKGYNGLVGELIERNFQRYGVPLLLSTLTNGLLIGITSALNNRGNKEGATNFFGDYLLMQLMRQSGMGINQVVNQILRDKSKIAPIVVIREGSRVFISPNTDIFFPIPRENEVIAEFLK | soluble
11 | MAQILPIRFQEHLQLQNLGINPANIGFSTLTMESDKFICIREKVGEQAQVVIIDMNDPSNPIRRPISADSAIMNPASKVIALKAGKTLQIFNIEMKSKMKAHTMTDDVTFWKWISLNTVALVTDNAVYHWSMEGESQPVKMFDRHSSLAGCQIINYRTDAKQKWLLLTGISAQQNRVVGAMQLYSVDRKVSQPIEGHAASFAQFKMEGNAEESTLFCFAVRGQAGGKLHIIEVGTPPTGNQPFPKKAVDVFFPPEAQNDFPVAMQISEKHDVVFLITKYGYIHLYDLETGTCIYMNRISGETIFVTAPHEATAGIIGVNRKGQVLSVCVEEENIIPYITNVLQNPDLALRMAVRNNLAGAEEL | soluble
12 | MGKKKNSNKSAAAAPAVKHNDRWSSIELGEAKSAAVSHYKEPSKEPKFVHPAKLEKVKRIHDGLNIDRVLSHGPVPKQNGGTKRKHVEVTTQKLENKKPKVEVKKEDEKSKNKKMKNQNKHTALVQNETSTRSTYFVEEPDNENKVTLISNGREIAFKKTEVVESDDEQMIGLDSDEELEDEDETDIDEDEMMIDPKDIERYINFESVEDEEDMEDEEIEDEEFEDEEFEDEEEEADEQEEEEEDVSDEESVVSEMDADSDDEGFIAGKDREAHVISKDKFTRNAPAVDFDKFPFTDEDSVVTSSRAFGFMISPCDVQTFFDKFYQSNVLVVRRKQPTYFGNLFSTARLGELLEKNHLEYGRNINIAQYKNGVRTTLNGQGRAYPQIVKQHLHNMCSVQLVNPQTYDDRIWYLCEVIQEQFGCFVGANTYLTPAGSSGFAPHWDEIDAFLLQVEGRKYWRVWAPESAEEELPLESSDNFTEDDMKGREPVFEGWIEKGDMIYIPRGYIHQARTDSKVHSLHVTVSTGRQWSFANLMEKVVPEAIGVLTDTRHKLRRGLPTGLFDMGGVIDLDYSQEDHFVEKFKMVVDRHMSMLRNLVADQLLESSVDSLAKEFMKQALPPRLTEQEKKLSVLGSSTNLLGDDLVDFTARTKVRLIRRHTQRLLMESEDACFISHRINNSRLFEGRPEQIVEYPISGIDAYRVLSNSYPEWRTLYEIFSLRETKTKSRKENLAAIQLLFQIGVLLVKN | not soluble
13 | MEEKKPVNLVLPEVENAIFIEGYPGVGLVGHIAANFLAKELDMDLIGYVDSLFIPPMSLILEGRPTPPLRFYGKNNIIIAIADIFLPPTLVNEIAKEIVNYLKKVNAEKVISLAGMGIGFFKDTFEVWGIGGSEEENKELESLGVKILKYGSITGMSGKLLWEASRAGLKSYVLLGETFGDRPDPRAAANVVEVLNKMLGLNVSVEPLLKEAEMIEEQLRRMHEQMEEARRKMERQYETMYL | not soluble
14 | METTQTLRFKTKALAVLSKCYDHAQTHLKGGVLQVNLLSVNYGGPRLAAVANAGTAGLISFEVSPDAVAEWQNHQSPEEAPAAVSFRNLAYGRTCVLGKELFGSAVEQASLQFYKRPQGGSRPEFVKLTMEYDDKVSKSHHTCALMPYMPPASDRLRNEQMIGQVLLMPKTASSLQKWARQQGSGGVKVTLNPDLYVTTYTSGEACLTLDYKPLSVGPYEAFTGPVAKAQDVGAVEAHVVCSVAADSLAAALSLCRIPAVSVPILRFYRSGIIAVVAGLLTSAGDLPLDLSVILFNHASEEAAASTASEPEDKSPRVQPLGTGLQQRPRHTVSPSPSPPPPPRTPTWESPARPETPSPAIPSHSSNTALERPLAVQLARKRTSSEARQKQKHPKKVKQAFNPLI | soluble
15 | MGKNLLREKKRLIRQKILFLTGENESWMKNPEIVKEVQRLSKQLESDLIADKRPLPSLDPDKLTKEKYQHFLDLGYQVGDIKKALGLGTTTFQNWRKANGIENKINRKQKKEESKLMKFNIHTASLLLPGTFGAEGKECITISKSGLALSGPVVRRLNKPEWIQLYLDESRLALFVIPCKATDEGARSCVNPKSKKKAGYRKSWSGSILEKVAKASKMDIENHRYHVEPESVEGYPTALGFDLTKAVKN | not soluble
16 | RRMVALYDYDPRESSPNVDVEAELTFCTGDIITVFGEIDEDGFYYGELNGQKGLVPSNFLEEV | soluble
17 | KGHAWTHSAGEPLRVVAIQGNIAQELKWDPNQVRAQLDLYRDLSLPQQDVDLIVWPETAVPILQDMASGYLGAMGQVADEKNAALITGVPVRERLADGKSRYFNGITVVGEGAGTYLKQKLVPFGEYVPLQDLLRGLIAFFDLPMSDFARGPADQPLLKAKGYQIAPYICYEVVYPEFAAALAAQSQVLLTVSNDTWFGTSIGPLQHLQMAQMRALESGRWMIRATNNGVTGLIDPYGRIVRQIPQFQQGILRGEVIPMQGLTPYLQYR | not soluble
18 | MSLQRPVMLLSDDDSEVRRLVYDSLDRLGCEMEEPDNGEQALAAFRRIQPEIVLLDLAMTQADAFELCASLHGARGGERVSILAVAGRGDLEGVRRAIDAGATDFLIHPVDVEMLGLRLSCGRRSAQTRERLSRNEERNRGLIKGIPHLVLQISKEGTVLDFEAPRDFDLRQFPDGLRGRRIQDVFFADAPYVIVRCIERVIETAESQVLEHNVRIGNDIHVYETRILPNAEGEPTVVMRDVTERRKMEKEGHHHHHH | soluble
19 | MSPAYLCARPRTRASVTFRPTCGVNLPFHADRARTVSTSTNSATVLWLGYQAPNSISTAVSGAVANHAAKDLQKFQTALQSRNPDQRKVVIGYSYGSTVAGKAASSSELDVRARHFRGDGYSIALNNAVEIKGLEHHHHHH | not soluble
20 | NTLGMVMHADGGYLGSKPYCASGQYIKRMSDYCRGCAYKVTESTTDDACPFNALYWHFLMRHSDQLRRNQRMGMIYKNLDRMAEAKQQALWERGEHLLARLDAGEAL | not soluble
21 | MAHHHHHHMIGSFRIIRLPRTASSLRSLNGGQRSPHDDVVCGRQPQGLEGGRKGESVDGGIRPSFTRVGQLTDTYRTRRAGWLCQRDDRWTERRPFQPAGIFLEGGEEAGRVDLRLTDMQRIYDVGPISAENERFAASTLLYATDEVRSLLVEKEWIKLYCLHGVAAADDECNIAFVDLTEKLEDVKRVLVAWKEKDA | not soluble
22 | LRSVFVSGFPRGVDSAQLSEYFLAFGPVASVVMDKDKGVFAIVEMGDVGAREAVLSQSQHSLGGHRLRVRPREQKEFQSPASKSPKG | soluble
